Experimental data from patent US20250019444A1 (published 2025).

Molecular target: T1, ULBP6 (NKG2D natural ligand) (Homo sapiens (Human), UniProt Q5VY80 26-218)
T1 sequence: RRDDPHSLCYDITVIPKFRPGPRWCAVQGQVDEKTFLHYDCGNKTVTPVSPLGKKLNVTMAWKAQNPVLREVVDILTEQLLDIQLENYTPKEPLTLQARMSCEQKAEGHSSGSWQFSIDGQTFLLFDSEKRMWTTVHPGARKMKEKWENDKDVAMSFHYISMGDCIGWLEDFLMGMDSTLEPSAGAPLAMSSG
Assay: SPR, injection over captured mouse Fc-human NKG2D, 25 C
Description: Briefly, mouse Fc-human NKG2D was captured using an anti-mouse Fc antibody immobilized on a CM5 chip at a density of approximately 100 RU. […] Biacore 8K evaluation software was used for all data analysis.

binding result: binds
B1: soluble mouse Fc-human NKG2D dimer (Fc fusion, UniProt P26718 73-216, looked up)
chain: IWSAVFLNSLFNQEVQIPLTESYCGPCPKNWICYKNNCYQFFDESKNWYESQASCMSQNASLLKVYSKEDQDLLKLVKSYHWMGLVHIPTNGSWQWEDGSILSPNLLTIIEMQKGDCALYASSFKGYIENCSTPNTYICMQRTV
notes: also called mFc-hNKG2D; fusion protein of human NKG2D and murine Fc; not shown: murine Fc
